Measured values published in patent US20110144312A1 (Kyowa Kirin, published 2011).

Assays:
[1] = biological target: T1, human IL-10Rα extracellular domain fused to the Fc portion of human IgG1 (human); assay: ELISA, coated human IL-10Rα:hFc
T1 construct: also called hIL-10Rα:hFc; human IL-10Rα:hFc
From the text: FIGS. 2A-2B show relative binding affinity of anti-human IL-10R antibodies for human IL-10Rα. A) Titration of anti-IL-10Rα antibodies binding to coated human IL-10Rα:hFc. Binding was detected with anti-human kappa-HRP, anti-mouse IgG-HRP, or anti-rat IgG-HRP. […] RPMI-8226 cells were labeled with anti-human IL-10Rα antibodies at various concentrations and detected with anti-human IgG-PE. The commercial rat anti-human IL-10Rα antibody 3F9 was detected with anti-rat IgG-PE. The geometric mean fluorescence intensity (geo mean) data are shown.
IL-10Rα Specific Antibody Detection ELISA: Antibody titers, specificity, and production by hybridomas were determined by ELISA. In brief, 96 well flat bottom Maxisorb plates were coated with 50 μl of hIL-10Rα (R&D Systems, Minneapolis, Minn.) at 1 μg/ml in carbonate buffer (pH 9.4) overnight at 4° C. or at 37° C. for 1 hour. After washing three times with PBS/0.05% Tween 20, plates were blocked with Superblock blocking buffer in TBS (Pierce) at room temperature for 30 minutes. […] The reaction was stopped with H₂SO₄ (LabChem) and the optical density was measured at 450 nm by a microplate reader. […] In this assay, binding of specific human IgG were detected with a peroxidase labeled sheep anti-human kappa antibody (The Binding Site, Birmingham, UK).

[2] = biological target: T2, cynomolgus macaque IL-10Rα on PBMC (cynomolgus macaque, UniProt Q13651 22-578 (human entry)); assay: flow cytometry on cynomolgus macaque PBMC, lymphocyte gate; competitor: recombinant human IL-10Rα [C]
T2 construct: Full-length entry cloned from cynomolgus T cells; endogenous on primary PBMC in the assays; also called IL-10Rα on the surface of cynomolgus lymphocytes and monocytes
T2 chain: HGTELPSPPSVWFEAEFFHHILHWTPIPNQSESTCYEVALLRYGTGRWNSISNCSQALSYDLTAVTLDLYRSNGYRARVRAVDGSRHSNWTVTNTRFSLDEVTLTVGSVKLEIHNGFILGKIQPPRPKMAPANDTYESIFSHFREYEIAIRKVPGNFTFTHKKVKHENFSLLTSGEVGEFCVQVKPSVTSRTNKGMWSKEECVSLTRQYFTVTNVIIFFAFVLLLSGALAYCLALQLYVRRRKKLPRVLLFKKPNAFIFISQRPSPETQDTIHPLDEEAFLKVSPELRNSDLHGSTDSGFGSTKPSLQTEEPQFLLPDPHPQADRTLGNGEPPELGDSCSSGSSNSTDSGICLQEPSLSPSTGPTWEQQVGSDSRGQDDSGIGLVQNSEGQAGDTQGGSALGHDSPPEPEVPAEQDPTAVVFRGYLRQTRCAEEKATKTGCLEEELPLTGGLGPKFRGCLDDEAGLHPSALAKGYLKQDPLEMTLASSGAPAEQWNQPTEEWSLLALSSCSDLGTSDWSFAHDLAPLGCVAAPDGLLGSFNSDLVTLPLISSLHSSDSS

[3] = biological target: T3, mouse IL-10Rα on splenocytes (mouse, UniProt Q61727 17-575); assay: flow cytometry on splenocytes
T3 construct: whole, on cells
T3 sequence (looked up): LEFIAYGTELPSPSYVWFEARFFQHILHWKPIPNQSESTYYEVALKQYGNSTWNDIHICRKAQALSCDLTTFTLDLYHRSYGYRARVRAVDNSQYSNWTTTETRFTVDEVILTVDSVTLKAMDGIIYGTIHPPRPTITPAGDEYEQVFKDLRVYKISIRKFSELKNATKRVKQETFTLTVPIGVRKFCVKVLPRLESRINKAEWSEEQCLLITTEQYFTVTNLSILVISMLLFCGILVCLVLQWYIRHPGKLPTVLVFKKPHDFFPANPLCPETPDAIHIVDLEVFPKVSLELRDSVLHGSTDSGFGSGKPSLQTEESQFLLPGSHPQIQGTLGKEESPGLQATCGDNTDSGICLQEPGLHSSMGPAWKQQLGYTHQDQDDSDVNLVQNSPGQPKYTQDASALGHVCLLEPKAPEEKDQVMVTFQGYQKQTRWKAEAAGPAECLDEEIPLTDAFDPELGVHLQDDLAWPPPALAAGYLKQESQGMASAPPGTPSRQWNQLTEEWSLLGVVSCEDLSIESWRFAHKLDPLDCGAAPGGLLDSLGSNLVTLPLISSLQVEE

B1: 136C5 (antibody, V domains shown)
VH: EVQLVESGGGLVQPGGSLRLSCAASGFTFSSYSMNWVRQAPGKGLEWVSYISTGSSTIYYADSVKGRFTISRDNAKNSLYLQMNSLRDEDTAVYYCARENYYGSGSYEDYFDYWGQGTLVTVSS
VL: EIVLTQSPATLSLSPGERATLSCRASQSVSSYLAWYQQKPGQAPRLLIYDASNRATGIPARFSGSGSGTDFTLTISSLEPEDFAVYYCQQRSNWPIFTFGPGTKVDIK
notes: Hybridoma antibody, human IgG1, kappa light chain; also called human anti-human IL-10Rα monoclonal antibody 136C5; hybridoma deposit PTA-9131
fold higher relative binding affinity than 37607 [1]: ~3 fold | binding result [2]: binds | binding result [3]: no binding

B2: 136C8 (antibody, V domains shown)
VH: EVQLVESGGGLVQPGGSLRLSCAASGFTFSSYSMNWVRQAPGKGLEWVSYISTRSSTIYYADSVKGRFTISRDNAKNSLYLQMNSLRDEDTAVYYCARENYYGSGSYEDYFDYWGQGTLVTVSS
VL: EIVLTQSPATLSLSPGERATLSCRASQSVSSYLAWYQQKPGQAPRLLIYDASNRATGIPARFSGSGSGTDFTLTISSLEPEDFAVYYCQQRSNWPIFTFGPGTKVDIK
notes: Hybridoma antibody, human IgG2, kappa light chain; also called human anti-human IL-10Rα monoclonal antibody 136C8; hybridoma deposit PTA-9132
fold higher relative binding affinity than 37607 [1]: ~3 fold | binding result [2]: binds | binding result [3]: no binding
